Measured values from US20140213513A1 (Sanofi, priority 2012, published 2014).
*1 amine or outer side, *2 acyl side, *3 side chain or, on linkers, in order; H or OH if unused. Where no end group is shown, it is not given here. Side-chain parts run from the residue outwards. [ ]: non-standard residue; d: D form. The star is where a group is joined. γGlu = O=C(O)[C@H](CCC(=O)[*:2])N[*:1]; Stearoyl = CCCCCCCCCCCCCCCCCC(=O)*; Palmitoyl = CCCCCCCCCCCCCCCC(=O)*; Aib = CC(C)(N)C(=O)O

T1: human GIP receptor (human, UniProt P48546 22-466)
T1 sequence (looked up): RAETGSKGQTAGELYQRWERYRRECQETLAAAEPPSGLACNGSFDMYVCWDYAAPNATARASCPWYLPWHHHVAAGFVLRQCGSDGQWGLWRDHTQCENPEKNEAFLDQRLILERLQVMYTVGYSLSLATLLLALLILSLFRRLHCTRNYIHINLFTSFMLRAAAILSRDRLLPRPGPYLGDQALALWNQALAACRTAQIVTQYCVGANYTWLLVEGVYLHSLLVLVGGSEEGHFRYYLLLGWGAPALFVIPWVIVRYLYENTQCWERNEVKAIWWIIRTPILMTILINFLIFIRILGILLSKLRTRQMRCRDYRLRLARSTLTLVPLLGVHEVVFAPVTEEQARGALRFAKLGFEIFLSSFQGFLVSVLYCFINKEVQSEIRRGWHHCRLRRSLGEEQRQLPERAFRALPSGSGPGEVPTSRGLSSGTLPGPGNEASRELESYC


Tests used:
Assay in all cases: cell-based or functional assay
human GLP-1 receptor = human GLP-1 receptor (human, UniProt P43220 24-463)
human GIP receptor = molecular target: T1, human GIP receptor
human glucagon receptor = human glucagon receptor (human, UniProt P47871 26-477)
Chain of human glucagon receptor (P47871 26-477): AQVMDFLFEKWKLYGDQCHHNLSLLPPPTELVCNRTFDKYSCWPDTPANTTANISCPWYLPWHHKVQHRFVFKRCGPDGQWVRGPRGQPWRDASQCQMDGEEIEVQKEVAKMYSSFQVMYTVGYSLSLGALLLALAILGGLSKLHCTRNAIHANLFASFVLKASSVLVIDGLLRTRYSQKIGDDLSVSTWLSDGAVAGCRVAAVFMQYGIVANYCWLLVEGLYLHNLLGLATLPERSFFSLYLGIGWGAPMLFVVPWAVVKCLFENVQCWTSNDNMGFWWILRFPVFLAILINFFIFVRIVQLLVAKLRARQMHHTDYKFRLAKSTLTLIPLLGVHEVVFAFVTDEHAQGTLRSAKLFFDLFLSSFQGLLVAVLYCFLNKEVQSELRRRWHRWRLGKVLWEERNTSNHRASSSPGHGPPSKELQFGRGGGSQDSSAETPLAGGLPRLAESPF

Row | Binder | EC50 hGLP-1 R (human GLP-1 receptor) [pM] | EC50 hGIP R (human GIP receptor) [pM] | EC50 hGLUC R (human glucagon receptor) [pM]
1 | Y[Aib]EGTFTSDLSKQK([γGlu-Palmitoyl])EKEAA[Aib]EFIEWLKAGGPSSGAPPPS-NH2 (N-terminus assumed; SMILES CCCCCCCCCCCCCCCC(=O)N[C@@H](CCC(=O)NCCCC[C@H](NC(=O)[C@H](CCC(N)=O)NC(=O)[C@H](CCCCN)NC(=O)[C@H](CO)NC(=O)[C@H](CC(C)C)NC(=O)[C@H](CC(=O)O)NC(=O)[C@H](CO)NC(=O)[C@@H](NC(=O)[C@H](Cc1ccccc1)NC(=O)[C@@H](NC(=O)CNC(=O)[C@H](CCC(=O)O)NC(=O)C(C)(C)NC(=O)[C@@H](N)Cc1ccc(O)cc1)[C@@H](C)O)[C@@H](C)O)C(=O)N[C@@H](CCC(=O)O)C(=O)N[C@@H](CCCCN)C(=O)N[C@@H](CCC(=O)O)C(=O)N[C@@H](C)C(=O)N[C@@H](C)C(=O)NC(C)(C)C(=O)N[C@@H](CCC(=O)O)C(=O)N[C@@H](Cc1ccccc1)C(=O)N[C@H](C(=O)N[C@@H](CCC(=O)O)C(=O)N[C@@H](Cc1c[nH]c2ccccc12)C(=O)N[C@@H](CC(C)C)C(=O)N[C@@H](CCCCN)C(=O)N[C@@H](C)C(=O)NCC(=O)NCC(=O)N1CCC[C@H]1C(=O)N[C@@H](CO)C(=O)N[C@@H](CO)C(=O)NCC(=O)N[C@@H](C)C(=O)N1CCC[C@H]1C(=O)N1CCC[C@H]1C(=O)N1CCC[C@H]1C(=O)N[C@@H](CO)C(N)=O)[C@@H](C)CC)C(=O)O) [exendin-4 peptide analogue SEQ ID NO: 17] | 5.2 | 8.3 | 21000
2 | Y[Aib]EGTFTSDLSIQK([γGlu-Stearoyl])ESKAA[Aib]EFIEWLKAGGPSSGAPPPSK-NH2 (N-terminus assumed; SMILES CCCCCCCCCCCCCCCCCC(=O)N[C@@H](CCC(=O)NCCCC[C@H](NC(=O)[C@H](CCC(N)=O)NC(=O)[C@@H](NC(=O)[C@H](CO)NC(=O)[C@H](CC(C)C)NC(=O)[C@H](CC(=O)O)NC(=O)[C@H](CO)NC(=O)[C@@H](NC(=O)[C@H](Cc1ccccc1)NC(=O)[C@@H](NC(=O)CNC(=O)[C@H](CCC(=O)O)NC(=O)C(C)(C)NC(=O)[C@@H](N)Cc1ccc(O)cc1)[C@@H](C)O)[C@@H](C)O)[C@@H](C)CC)C(=O)N[C@@H](CCC(=O)O)C(=O)N[C@@H](CO)C(=O)N[C@@H](CCCCN)C(=O)N[C@@H](C)C(=O)N[C@@H](C)C(=O)NC(C)(C)C(=O)N[C@@H](CCC(=O)O)C(=O)N[C@@H](Cc1ccccc1)C(=O)N[C@H](C(=O)N[C@@H](CCC(=O)O)C(=O)N[C@@H](Cc1c[nH]c2ccccc12)C(=O)N[C@@H](CC(C)C)C(=O)N[C@@H](CCCCN)C(=O)N[C@@H](C)C(=O)NCC(=O)NCC(=O)N1CCC[C@H]1C(=O)N[C@@H](CO)C(=O)N[C@@H](CO)C(=O)NCC(=O)N[C@@H](C)C(=O)N1CCC[C@H]1C(=O)N1CCC[C@H]1C(=O)N1CCC[C@H]1C(=O)N[C@@H](CO)C(=O)N[C@@H](CCCCN)C(N)=O)[C@@H](C)CC)C(=O)O) [exendin-4 peptide analogue SEQ ID NO: 16] | 7 | 15.6 | 17000
3 | Y[Aib]QGTFTSDLSIQK([γGlu-Palmitoyl])EKRAA[Aib]EFIEWLKA[dA]GPSSGAPPPS-NH2 (N-terminus assumed; SMILES CCCCCCCCCCCCCCCC(=O)N[C@@H](CCC(=O)NCCCC[C@H](NC(=O)[C@H](CCC(N)=O)NC(=O)[C@@H](NC(=O)[C@H](CO)NC(=O)[C@H](CC(C)C)NC(=O)[C@H](CC(=O)O)NC(=O)[C@H](CO)NC(=O)[C@@H](NC(=O)[C@H](Cc1ccccc1)NC(=O)[C@@H](NC(=O)CNC(=O)[C@H](CCC(N)=O)NC(=O)C(C)(C)NC(=O)[C@@H](N)Cc1ccc(O)cc1)[C@@H](C)O)[C@@H](C)O)[C@@H](C)CC)C(=O)N[C@@H](CCC(=O)O)C(=O)N[C@@H](CCCCN)C(=O)N[C@@H](CCCNC(=N)N)C(=O)N[C@@H](C)C(=O)N[C@@H](C)C(=O)NC(C)(C)C(=O)N[C@@H](CCC(=O)O)C(=O)N[C@@H](Cc1ccccc1)C(=O)N[C@H](C(=O)N[C@@H](CCC(=O)O)C(=O)N[C@@H](Cc1c[nH]c2ccccc12)C(=O)N[C@@H](CC(C)C)C(=O)N[C@@H](CCCCN)C(=O)N[C@@H](C)C(=O)N[C@H](C)C(=O)NCC(=O)N1CCC[C@H]1C(=O)N[C@@H](CO)C(=O)N[C@@H](CO)C(=O)NCC(=O)N[C@@H](C)C(=O)N1CCC[C@H]1C(=O)N1CCC[C@H]1C(=O)N1CCC[C@H]1C(=O)N[C@@H](CO)C(N)=O)[C@@H](C)CC)C(=O)O) [exendin-4 peptide analogue SEQ ID NO: 14] | 6.5 | 6.2 | 62.3
4 | Y[Aib]QGTFTSDLSIQK([γGlu-Palmitoyl])EQRAA[Aib]EFIEWLKNTGPSSGAPPPS-NH2 (N-terminus assumed; SMILES CCCCCCCCCCCCCCCC(=O)N[C@@H](CCC(=O)NCCCC[C@H](NC(=O)[C@H](CCC(N)=O)NC(=O)[C@@H](NC(=O)[C@H](CO)NC(=O)[C@H](CC(C)C)NC(=O)[C@H](CC(=O)O)NC(=O)[C@H](CO)NC(=O)[C@@H](NC(=O)[C@H](Cc1ccccc1)NC(=O)[C@@H](NC(=O)CNC(=O)[C@H](CCC(N)=O)NC(=O)C(C)(C)NC(=O)[C@@H](N)Cc1ccc(O)cc1)[C@@H](C)O)[C@@H](C)O)[C@@H](C)CC)C(=O)N[C@@H](CCC(=O)O)C(=O)N[C@@H](CCC(N)=O)C(=O)N[C@@H](CCCNC(=N)N)C(=O)N[C@@H](C)C(=O)N[C@@H](C)C(=O)NC(C)(C)C(=O)N[C@@H](CCC(=O)O)C(=O)N[C@@H](Cc1ccccc1)C(=O)N[C@H](C(=O)N[C@@H](CCC(=O)O)C(=O)N[C@@H](Cc1c[nH]c2ccccc12)C(=O)N[C@@H](CC(C)C)C(=O)N[C@@H](CCCCN)C(=O)N[C@@H](CC(N)=O)C(=O)N[C@H](C(=O)NCC(=O)N1CCC[C@H]1C(=O)N[C@@H](CO)C(=O)N[C@@H](CO)C(=O)NCC(=O)N[C@@H](C)C(=O)N1CCC[C@H]1C(=O)N1CCC[C@H]1C(=O)N1CCC[C@H]1C(=O)N[C@@H](CO)C(N)=O)[C@@H](C)O)[C@@H](C)CC)C(=O)O) [exendin-4 peptide analogue SEQ ID NO: 15] | 6.9 | 11.4 | 54
5 | Y[Aib]QGTFTSDLSIQK([γGlu-Palmitoyl])EKRYA[Aib]EFIEWLKNTGPSSGAPPPS-NH2 (N-terminus assumed; SMILES CCCCCCCCCCCCCCCC(=O)N[C@@H](CCC(=O)NCCCC[C@H](NC(=O)[C@H](CCC(N)=O)NC(=O)[C@@H](NC(=O)[C@H](CO)NC(=O)[C@H](CC(C)C)NC(=O)[C@H](CC(=O)O)NC(=O)[C@H](CO)NC(=O)[C@@H](NC(=O)[C@H](Cc1ccccc1)NC(=O)[C@@H](NC(=O)CNC(=O)[C@H](CCC(N)=O)NC(=O)C(C)(C)NC(=O)[C@@H](N)Cc1ccc(O)cc1)[C@@H](C)O)[C@@H](C)O)[C@@H](C)CC)C(=O)N[C@@H](CCC(=O)O)C(=O)N[C@@H](CCCCN)C(=O)N[C@@H](CCCNC(=N)N)C(=O)N[C@@H](Cc1ccc(O)cc1)C(=O)N[C@@H](C)C(=O)NC(C)(C)C(=O)N[C@@H](CCC(=O)O)C(=O)N[C@@H](Cc1ccccc1)C(=O)N[C@H](C(=O)N[C@@H](CCC(=O)O)C(=O)N[C@@H](Cc1c[nH]c2ccccc12)C(=O)N[C@@H](CC(C)C)C(=O)N[C@@H](CCCCN)C(=O)N[C@@H](CC(N)=O)C(=O)N[C@H](C(=O)NCC(=O)N1CCC[C@H]1C(=O)N[C@@H](CO)C(=O)N[C@@H](CO)C(=O)NCC(=O)N[C@@H](C)C(=O)N1CCC[C@H]1C(=O)N1CCC[C@H]1C(=O)N1CCC[C@H]1C(=O)N[C@@H](CO)C(N)=O)[C@@H](C)O)[C@@H](C)CC)C(=O)O) [exendin-4 peptide analogue SEQ ID NO: 13] | 14.1 | 26.3 | 20.2
